Laboratory results from patent US10005838B2, “Milk fat globule epidermal growth factor 8 regulates fatty acid uptake” (REGENTS OF THE UNIVERSITY OF CALIFORNIA, priority 2013, dated 2018).

Experiments:
primary hepatocytes = assay: Fatty acid uptake in primary hepatocytes; type: cell-based, mouse
Method: Uptake of fatty acids by differentiated 3T3-L1 adipocytes or primary mouse adipocytes was assessed using a QBT Fatty Acid Uptake Kit (Molecular Devices). Cells were plated in triplicate in 96-well plates at a concentration of 25,000 cells per well in 100 μl of DMEM/10% FCS. Plates were centrifuged at 1000 rpm for 4 minutes and incubated at 37° Celsius for 4-5 hours. Cells were then serum deprived for 1 hour before treatment with recombinant proteins for 30 minutes followed by the addition of QBT Fatty Acid Uptake solution. […] Plates were incubated in a fluorescent plate reader at 37° Celsius and kinetic readings were acquired every 20 seconds for 30 minutes. Fluorescence values were plotted against time and data was expressed as relative fluorescent units per minutes×10^3.
The liver was pre-perfused through the portal vein with calcium-free buffer (0.5 mM EDTA, HBSS without Ca^2+ and Mg^2+) and next perfused with collagenase (3.5 U/ml Collegenase II (Worthington) 25 mM HEPES, HBSS with Ca^2+ and Mg^2+). […] Viability of isolated hepatocytes was determined by Trypan blue staining (around 85%) and cell density was approximately 60% confluence. […]

[1] = Olive oil gavage, serum triglycerides; type: in vivo, mouse
Method: (§1) 6-8 week-old mice were fasted for 4 hours and then gavaged with 15 μL olive oil per gram body weight. Mice had access to water but not food for the remainder of the experiment. In the experiments in FIGS. 3C and 3F, 50 μg/kg body weight of recombinant protein was mixed into olive oil and administered immediately to mice by gavage. In blocking antibody experiments, integrins αv (clone RMV-7) and 05 (clone ALULA) were administered by gavaging mice with 100 μL water containing 0.5 μg antibody per gram body weight 30 minutes before olive oil gavage. Triglyceride content of serum was assayed using a commercially available kit (Sigma-Aldrich) and fatty acid concentrations were quantified by Wako (Rabot, S. et al., FASEB J 24, 4948-4959 (2010)).

[2] = Liver and small intestine triglyceride content after olive oil gavage; type: in vivo, mouse; settings: Mfge8−/− mice; 8 hours after olive oil gavage
Method: as §1
After experiments described above, samples from the left lobe of the liver and the proximal small intestine were isolated and rapidly frozen in liquid nitrogen for triglyceride content assays. Control mice were starved for 8 hours before their organs were harvested as above. Triglyceride content of the intestine (Uchida, A. et al., Front Physiol 3, 26) and liver (Kim, K. Y. et al., J Clin Invest 121, 3701-3712 (2011)) and fecal samples Kim, K. Y. et al., J Clin Invest 121, 3701-3712 (2011)) were quantified as described previously.

AKT = assay: Western blot, AKT phosphorylation in HepG2 cells; type: cell-based, human
Method: Following tissue preparation and SDS-PAGE, membranes were incubated with a polyclonal antibody against Akt (Cell Signaling Technology), or Rictor (Cell Signaling); Anti-PGC1 alpha antibody (abcam); a monoclonal antibody against Phospho-Akt Ser473 (Cell Signaling), Phospho-Rictor Thr1135 (Cell Signaling), GAPDH (Cell Signaling), or Mfge8 (R&D Systems). For evaluation of total AKT and total Rictor, membranes that been blotted for phospho-AKT and phospho-Rictor were stripped and reprobed. Plasma membrane and post-plasma membrane fractions were isolated as previously described (Nishiumi, S. & Ashida, H., Biosci Biotechnol Biochem 71, 2343-2346 (2007)).

antral smooth muscle = assay: Force of antral smooth muscle ring contraction; design: species or system mouse; settings: addition of rMfge8

B1: rMfge8: recombinant Milk Fat Globule Epidermal Growth Factor 8, an integrin ligand, expressed in High 5 cells (protein)
chain: ASGDFCDSSLCLNGGTCLTGQDNDIYCLCPEGFTGLVCNETERGPCSPNPCYNDAKCLVTLDTQRGDIFTEYICQCPVGYSGIHCETETNYYNLDGEYMFTTAVPNTAVPTPAPTPDLSNNLASRCSTQLGMEGGAIADSQISASSVYMGFMGLQRWGPELARLYRTGIVNAWTASNYDSKPWIQVNLLRKMRVSGVMTQGASRAGRAEYLKTFKVAYSLDGRKFEFIQDESGGDKEFLGNLDNNSLKVNMFNPTLEAQYIKLYPVSCHRGCTLRFELLGCELHGCSEPLGLKNNTIPDSQMSASSSYKTWNLRAFGWYPHLGRLDNQGKINAWTAQSNSAKEWLQVDLGTQRQVTGIITQGARDFGHIQYVASYKVAHSDDGVQWTVYEEQGSSKVFQGNLDNNSHKKNIFEKPFMARYVRVLPVSWHNRITLRLELLGC
Primary hepatocytes
  fatty acid uptake in Mfge8−/− hepatocytes: rescued
[1]; Mfge8−/− mice, 50 μg/kg recombinant protein mixed into olive oil
  serum triglyceride levels after olive oil gavage: significantly raised
[1]; WT mice, recombinant protein mixed into olive oil
  WT serum triglyceride levels after olive oil gavage: significantly increased
[2]
  liver triglyceride levels after gavage: increased significantly
AKT
  phosphorylation of AKT: induced
Antral smooth muscle
  smooth muscle contraction of stomach strips from Mfge8 KO mice: rescued
